Sequences and labels used below:
B1: human CTC1 (subunit of the purified recombinant CST complex) (natural protein)
chain: MAAGRAQVPSSEQAWLEDAQVFIQKTLCPAVKEPNVQLTPLVIDCVKTVWLSQGRNQGSTLPLSYSFVSVQDLKTHQRLPCCSHLSWSSSAYQAWAQEAGPNGNPLPREQLLLLGTLTDLSADLEQECRNGSLYVRDNTGVLSCELIDLDLSWLGHLFLFPRWSYLPPARWNSSGEGHLELWDAPVPVFPLTISPGPVTPIPVLYPESASCLLRLRNKLRGVQRNLAGSLVRLSALVKSKQKAYFILSLGRSHPAVTHVSIIVQVPAQLVWHRALRPGTAYVLTELRVSKIRGQRQHVWMTSQSSRLLLLKPECVQELELELEGPLLEADPKPLPMPSNSEDKKDPESLVRYSRLLSYSGAVTGVLNEPAGLYELDGQLGLCLAYQQFRGLRRVMRPGVCLQLQDVHLLQSVGGGTRRPVLAPCLRGAVLLQSFSRQKPGAHSSRQAYGASLYEQLVWERQLGLPLYLWATKALEELACKLCPHVLRHHQFLQHSSPGSPSLGLQLLAPTLDLLAPPGSPVRNAHNEILEEPHHCPLQKYTRLQTPSSFPTLATLKEEGQRKAWASFDPKALLPLPEASYLPSCQLNRRLAWSWLCLLPSAFCPAQVLLGVLVASSHKGCLQLRDQSGSLPCLLLAKHSQPLSDPRLIGCLVRAERFQLIVERDVRSSFPSWKELSMPGFIQKQQARVYVQFFLADALILPVPRPCLHSATPSTPQTDPTGPEGPHLGQSRLFLLCHKEALMKRNFCVPPGASPEVPKPALSFYVLGSWLGGTQRKEGTGWGLPEPQGNDDNDQKVHLIFFGSSVRWFEFLHPGQVYRLIAPGPATPMLFEKDGSSCISRRPLELAGCASCLTVQDNWTLELESSQDIQDVLDANKSLPESSLTDLLSDNFTDSLVSFSAEILSRTLCEPLVASLWMKLGNTGAMRRCVKLTVALETAECEFPPHLDVYIEDPHLPPSLGLLPGARVHFSQLEKRVSRSHNVYCCFRSSTYVQVLSFPPETTISIPLPHIYLAELLQGGQSPFQATASCHIVSVFSLQLFWVCAYCTSICRQGKCTRLGSTCPTQTAISQAIIRLLVEDGTAEAVVTCRNHHVAAALGLCPREWASLLDFVQVPGRVVLQFAGPGAQLESSARVDEPMTMFLWTLCTSPSVLRPIVLSFELERKPSKIVPLEPPRLQRFQCGELPFLTHVNPRLRLSCLSIRESEYSSSLGILASSC
B2: human STN1 (subunit of the purified recombinant CST complex) (natural protein)
chain: MQPGSSRCEEETPSLLWGLDPVFLAFAKLYIRDILDMKESRQVPGVFLYNGHPIKQVDVLGTVIGVRERDAFYSYGVDDSTGVINCICWKKLNTESVSAAPSAARELSLTSQLKKLQETIEQKTKIEIGDTIRVRGSIRTYREEREIHATTYYKVDDPVWNIQIARMLELPTIYRKVYDQPFHSSALEKEEALSNPGALDLPSLTSLLSEKAKEFLMENRVQSFYQQELEMVESLLSLANQPVIHSASSDQVNFKKDTTSKAIHSIFKNAIQLLQEKGLVFQKDDGFDNLYYVTREDKDLHRKIHRIIQQDCQKPNHMEKGCHFLHILACARLSIRPGLSEAVLQQVLELLEDQSDIVSTMEHYYTAF

What all share (experiment): cryo-EM structure
The series “cryo-EM structure” deals with the molecule itself.
Series [1] has as its target B1.
Series [2] deals with B2.

On to B1, for which the binding result in “cryo-EM structure” was “binds”. The stoichiometry N is the number of molecules, sites or subunits per partner or assembly. Regarding B2, the “stoichiometry N” value in series [1] was determined as 1.

B3: human TEN1 (subunit of the purified recombinant CST complex) (natural protein)
chain: MMLPKPGTYYLPWEVSAGQVPDGSTLRTFGRLCLYDMIQSRVTLMAQHGSDQHQVLVCTKLVEPFHAQVGSLYIVLGELQHQQDRGSVVKARVLTCVEGMNLPLLEQAIREQRLYKQERGGSQ
Take B3: the “stoichiometry N” value in series [2] was 1. The binding result in series [1] is on record as “binds”.

The values are drawn from doi:10.1101/815886 (bioRxiv, 2019).
